Laboratory results: patent US6982321

Target: isolated VL-domain of the reshaped anti-lysozyme Fv-fragment (HuVLLYS)
Test: formaldehyde crosslinking of Fv, overloaded SDS gel

fraction of crosslinked material: < 5%
B1: isolated VL-domain of the reshaped anti-lysozyme Fv-fragment (HuVLLYS) (protein)
VL: DIQMTQSPSSLSASVGDRVTITCRASGNIHNYLAWYQQKPGKAPKLLIYYTTTLADGVPSRFSGSGSGTDFTFTISSLQPEDIATYYCQHFWSTPRTFGQGTKVEIK
